Test results published in paper PMC9829174.

Test system: His6MBP-MP (TMV movement protein, 30 kDa) (Tobacco mosaic virus)
Assay: EMSA
Settings: 20 mM Tris-HCl pH 7.5, 35 mM KCl, 3.5 mM MgCl2, 5 U RNaseOUT, 10 ul, 30 min at 4 C; 6% native PAGE at 4 C, RNA blot detection; ssDNA/dsDNA competitors were …

## PSTVd WT full-length transcript, folded
  K half: 36 nM
